Legend:
[1] = Production of D-tryptophan from high concentrations of N-acetyl-DL-tryptophan using culture medium of recombinant E. coli; assay type: cell-based, E. coli HB101
Method: Cells of E. coli HB101 strain were transformed with the plasmid pSL-AD10 expressing the mutant D-aminoacylase 3AD-0089 (containing the amino acid substitution of A154V/M347A/R374F) obtained in Example 18. The transformant was inoculated to a liquid LB medium, and cultured at 30° C. overnight. Then, the E. coli was inoculated to a culture medium (2x YT) and incubated at 30° C. for 18 hours. N-acetyl-D-tryptophan was hydrolyzed using the culture medium solution of the E. coli.
400 mL of a reaction solution containing the culture medium solution of the E. coli and 15% N-acetyl-DL-tryptophan was incubated at 30° C. for 24 hours while being stirred. E. coli HB101 strain containing the wild type […] was used as a control. While with the wild type the yield was about 4%, with the recombinant E. coli containing pSL-AD10 the yield was 90% or higher (FIG. 1).
The hydrolysis was carried out in the presence of 20% N-acetyl-DL-tryptophan by the same method as described in Example 26. The yield was 90% or higher with the recombinant E. coli having the plasmid pSL-AD10 that contains the DNA encoding the mutant D-aminoacylase 3AD-0089 (containing the amino acid substitution of A154V/M347A/R374F). The optical purity of tryptophan produced was analyzed by the procedure described below. […] The elution was detected with the optical density at 280 nm. […]

[2] = D-aminoacylase activity assay (20 mM N-acetyl-D-tryptophan, TNBS method); assay type: biochemical
Method: The enzyme reaction can be achieved by incubating 1.0 ml of a reaction solution containing 20 mM N-acetyl-D-tryptophan (Sigma), 50 mM Tris-hydrochloride buffer (pH 7.5), and an enzyme solution at 30° C. for 10 minutes. Then, the reaction is stopped by adding 0.5 ml of a stop solution containing TCA (comprising 0.11 M trichloroacetic acid, 0.22 M sodium acetate, and 0.33 M acetic acid). The amount of D-tryptophan produced can be determined by TNBS method (Biosci. Biotech. Biochem., 58, 24 (1994)).
For example, 0.25 ml of 100 mM Na2B4O7 is added to 0.25 ml of the stop solution, 10 μl of 110 mM TNBS (trinitrobenzenesulfonic acid) solution is added to the mixed solution, and immediately thereafter, the resulting mixture is stirred. After the mixture is allowed to stand for five minutes, 1 ml of 100 mM NaHPO4 containing 1.5 mM Na2SO3 is added to the mixture to stop the color reaction. Then, the absorbance of the solution is determined at 420 nm. One unit of the enzyme activity is defined as the amount of enzyme that catalyzes the production of 1 μmol of D-tryptophan at 30° C. for one minute.

[3] = Production of D-tryptophan from N-acetyl-DL-tryptophan using cell-free extract (10 U/mL); assay type: biochemical; conditions: for Yield of D-Trp: 10 U/mL reaction solution, 30° C., 24 hours
Method: Wild-type or mutant D-aminoacylase extract can be obtained by, for example, recovering microbial cells by filtration and centrifugation, suspending them in a buffer, and disrupting them using a Bead-Beater (BIOSPEC PRODUCT). Reaction solutions containing 10 U/mL enzyme thus obtained 300 mM Tris-hydrochloride buffer (pH 8.0), and 12%, 15%, 17%, 20% or 22% N-acetyl-DL-tryptophan, are incubated at 30° C. for 24 hours while being shaken. Thus, D-tryptophan can be produced in 80% or higher yield from 12%, 15%, or 17% substrate, or in 50% or higher yield from 20% or 22% substrate.
0.5 ml of a reaction solution containing 5 units of cell-free extract obtained in the step of enzyme purification described in Example 19 or Example 23, 12%, 15%, 17%, 20%, or 22% N-acetyl-DL-tryptophan, and 300 mM Tris-hydrochloride buffer (pH 8.0) was incubated at 30° C. for 24 hours while being stirred. While with the wild type the yield of D-tryptophan was lower than 10% at any substrate concentration, with the mutant 3AD-0089 the yield of D-tryptophan was 80% or higher at substrate concentrations of up to 17%. Furthermore, the mutant was confirmed to enable the production of D-tryptophan in 66% yield in the presence of 20% substrate, or in 58% yield in the presence of 22% substrate.

[4] = Hydrolysis of 15% N-acetyl-DL-tryptophan by E. coli cells; assay type: cell-based, E. coli HB101; conditions: 25° C., 24 hours
Method: 3AD-0013(M347Q/R374H) and 3AD-0089(A154V/M347A/R374P) are mutants with two amino acid substitutions and with three amino acid substitutions of the third generation mutants obtained in Example 17, respectively. Cells of E. coli HB101 strain transformed with plasmids expressing the two types of mutants were each inoculated to a liquid LB medium, and cultured at 30° C. overnight. Then, the E. coli cells were inoculated to a culture medium (2x YT) and incubated at 30° C. for 18 hours. The cells of E. coli were harvested, and used to hydrolyze N-acetyl-D-tryptophan.
10 ml of a reaction solution containing E. coli cells prepared from 5 mL of culture medium solution, 300 mM Tris-hydrochloride buffer (pH 8.0), and 15% N-acetyl-DL-tryptophan was incubated at 25° C. for 24 hours while being stirred. E. coli HB101 strain containing the wild-type pSL-ADD6 was used as a control. While the yield was about 15% with the wild type, the yields were about 30% and about 80% with the mutant 3AD-0013 having two amino acid substitutions and the mutant 3AD-0089 having three amino acid substitutions, respectively. Thus, the third generation mutants obtained in […] were confirmed to have higher processability in the hydrolysis of higher concentrations of N-acetyl-DL-tryptophan.

[5] = Activity of the cloned, purified enzyme to N-acetyl-L-tryptophan; assay type: biochemical; conditions: cloned enzyme purified from E. coli
Description: The present inventors focused on the fact that the D-aminoacylase derived from Alcaligenes denitrificans subsp. xylosoxydans MI-4 strain has an exceedingly high specific activity (404 U/mg) to N-acetyl-D-methionine. According to references, the D-aminoacylase had only 20 U/mg or lower activity to N-acetyl-D-tryptophan. The present inventors cloned the gene encoding the enzyme into E. coli, purified the cloned enzyme, and measured its specific activity. […] Thus, this enzyme can be useful to produce D-tryptophan from N-acetyl-DL-tryptophan.

B1: wild-type: D-aminoacylase derived from Alcaligenes denitrificans subsp. xylosoxydans MI-4, SEQ ID NO: 1 (protein)
chain: MSQSDSQPFDLLLAGGTLIDGSNTPGRRADLGVRGDRIAAIGDLSDAAAHTRVDVSGLVVAPGFIDSHTHDDNYLLRRRDMTPKISQGVTTVVTGNCGISLAPLAHANPPAPLDLLDEGGSYRFERFADYLDALRATPAAVNAACMVGHSTLRAAVMPDLQRAATDEEIAAMRDLAEEAMASGAIGISTGAFYPPAARATTEEIIEVCRPLSAHGGIYATHMRDEGEHIVAALEETFRIGRELDVPVVISHHKVMGQPNFGRSRETLPLIEAAMARQDVSLDAYPYVAGSTMLKQDRVLLAGRTIITWCKPFPELSGRDLDEVAAERGKSKYDVVPELQPAGAIYFMMDEPDVQRILAFGPTMIGSDGLPHDERPHPRLWGTFPRVLGHYARDLGLFPLETAVWKMTGLTAARFGLAGRGQLQAGYFADLVVFDPATVADTATFEHPTERAAGIHSVYVNGAPVWQEQAFTGQHAGRVLARTAA
modifications: Alcaligenes denitrificans subsp. xylosoxydans MI-4
- yield ([1]; 15% N-acetyl-DL-tryptophan, 30° C., 24 hours, culture medium solution): about 4%
- D-tryptophan produced ([1]; from 150 g/l N-acetyl-DL-tryptophan (75 g/l N-acetyl-D-tryptophan), FIG. 1): about 2.5 g/l
- D-aminoacylase activity of cell extract ([2]; cell extract of E. coli JM109 transformant): 34 U/mg
- specific activity of the purified enzyme ([2]; purified enzyme, N-acetyl-D-tryptophan): 528 U/mg
- Yield of D-Trp ([3]; 12% N-Ac-DL-Trp): 9.4%
- Yield of D-Trp ([3]; 15% N-Ac-DL-Trp): 3.5%
- Yield of D-Trp ([3]; 17% N-Ac-DL-Trp): 1.8%
- Yield of D-Trp ([3]; 20% N-Ac-DL-Trp): 0.5%
- Yield of D-Trp ([3]; 22% N-Ac-DL-Trp): 0.5%
- yield of D-tryptophan ([3]; at any substrate concentration (12% to 22%)): lower than 10%
- yield [4]: about 15%
- activity to N-acetyl-L-tryptophan [5]: inactive
